The supplement of paper PMC7877785
± gives the uncertainty stated by the source.

Experiment: self-splicing fitness, log relative to wild type (ln ratio); higher = more splicing; Tetrahymena group I intron in knt gene, E. coli kanamycin selection, DiMSum; sequences stand for … in CUCUCU…GGAGGGAAAAGUUAUCAGGCAUGCACCUGGUAGCUAGUCUUUAAACCAAUAGAUUGCAUCGGUUUAAAAGGCAAGACCGUCAAAUUGCGGGAAAGGGGUCAACAGCCGUUCAGUACCAAGUCUCAGGGGAAACUUUGAGAUGGCCUUGCAAAGGGUAUGGUAAUAAGCUGACGGACAUGGUCCUAACCACGCAGCCAAGUCCUAAGUCAACAGAUCUUCUGUUGAUAUGGAUGCAGUUCACAGACUAAAUGUCGGUCGGGGAAGAUGUAUUCUUCUCAUAAGAUAUAGUCGGACCUCUCCUUAAUGGGAGCUAGCGGAUGAAGUGAUGCAACACUGGAGCCGCUGGGAACUAAUUUGUAUGCGAAAGUAUAUUGAUUAGUUUUGGAGUACUCGUGGUCG
In short: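 A randomised library covering all eight P1ex-region intron nucleotides was built with the intron in the knt kanamycin-resistance gene on pET-22b(+) and held in E. coli BL21(DE3). Cells were grown overnight at 37°C or 30°C on LB agar, with or without 25 μg/mL kanamycin, plus 100 μg/mL carbenicillin, 50 μM IPTG and 0.2% rhamnose, and pooled colonies were amplicon-sequenced on an Illumina HiSeq 2500. DiMSum fitness is the error-weighted combination of wild-type-normalised replicate fold changes, kanamycin versus none.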

| Sequence | self-splicing fitness (ln) (30 °C) | self-splicing fitness (ln) (37 °C) |
| --- | --- | --- |
| CACAAGCAAUAUUACGGCGG | -0.406 ± 0.042 | -0.181 ± 0.052 |
| CACAAGCAAUAUUACGGGAC | -3.48 ± 0.19 | -2.86 ± 0.2 |
| CACAAGCAAUAUUACGGGUU | -2.26 ± 0.068 | -1.52 ± 0.083 |
| CACAAGCAAUAUUACGUCAU | -3.45 ± 0.14 | -2.78 ± 0.15 |
| CACCAGCAAUAUUACGAAAC | – | -2.12 ± 0.31 |
| CACCAGCAAUAUUACGACAG | 0.251 ± 0.06 | 0.634 ± 0.083 |
| CACCAGCAAUAUUACGACCU | -3.45 ± 0.17 | -1.35 ± 0.17 |
| CACCAGCAAUAUUACGACGG | -0.253 ± 0.078 | 0.0217 ± 0.091 |
| CACCAGCAAUAUUACGAGCG | -0.154 ± 0.066 | 0.288 ± 0.086 |
| CACCAGCAAUAUUACGAGUG | -4.21 ± 0.18 | -2.76 ± 0.17 |
| CACCAGCAAUAUUACGCCGG | -2.23 ± 0.15 | -0.937 ± 0.14 |
| CACCAGCAAUAUUACGCGAC | -4.31 ± 0.2 | -2.89 ± 0.23 |
| CACCAGCAAUAUUACGCGGG | -3.44 ± 0.16 | -2.4 ± 0.15 |
| CACCAGCAAUAUUACGCGUA | -0.717 ± 0.061 | -0.165 ± 0.066 |
| CACCAGCAAUAUUACGCGUU | -2.15 ± 0.062 | -0.539 ± 0.067 |
| CACCAGCAAUAUUACGGACU | -2.98 ± 0.11 | -2 ± 0.11 |
| CACCAGCAAUAUUACGGAGC | -2.79 ± 0.13 | -1.58 ± 0.13 |
| CACCAGCAAUAUUACGGCUU | -1.91 ± 0.087 | -0.758 ± 0.093 |
| CACCAGCAAUAUUACGGGCG | -1.81 ± 0.053 | -0.295 ± 0.065 |
| CACCAGCAAUAUUACGGUUC | -2.02 ± 0.065 | -1.25 ± 0.085 |
| CACCAGCAAUAUUACGUCAA | -3.64 ± 0.42 | -2.31 ± 0.19 |
| CACCAGCAAUAUUACGUGUC | -3.8 ± 0.09 | -3.28 ± 0.11 |

| Sequence | self-splicing fitness (ln) (30 °C) | self-splicing fitness (ln) (37 °C) |
| --- | --- | --- |
| CACCAGCAAUAUUACGUUGU | -3.58 ± 0.14 | -2.29 ± 0.14 |
| CACGAGCAAUAUUACGAAGC | – | -1.41 ± 0.26 |
| CACGAGCAAUAUUACGCAUU | -4.65 ± 0.41 | -1.95 ± 0.3 |
| CACGAGCAAUAUUACGCCUC | -3.79 ± 0.26 | -1.37 ± 0.23 |
| CACGAGCAAUAUUACGCCUU | -2.3 ± 0.2 | -2.76 ± 0.4 |
| CACGAGCAAUAUUACGCGAA | -2.93 ± 0.28 | -2.1 ± 0.26 |
| CACGAGCAAUAUUACGGACU | -3.12 ± 0.22 | -1.44 ± 0.25 |
| CACGAGCAAUAUUACGGAUU | -3.86 ± 0.3 | -2.47 ± 0.26 |
| CACGAGCAAUAUUACGGUGA | -3.17 ± 0.23 | -2.98 ± 0.19 |
| CACGAGCAAUAUUACGUAAG | -3.62 ± 0.14 | -1.82 ± 0.11 |
| CACGAGCAAUAUUACGUAAU | -3.8 ± 0.39 | -2 ± 0.27 |
| CACGAGCAAUAUUACGUGCA | -3.55 ± 0.18 | -3.24 ± 0.23 |
| CACUAGCAAUAUUACGAACG | -0.448 ± 0.071 | 0.647 ± 0.11 |
| CACUAGCAAUAUUACGAAGG | -1.65 ± 0.1 | -0.781 ± 0.15 |
| CACUAGCAAUAUUACGACAC | -2.65 ± 0.22 | -1.69 ± 0.24 |
| CACUAGCAAUAUUACGACAU | -3.209 ± 0.019 | -1.97 ± 0.034 |
| CACUAGCAAUAUUACGACUC | -1.68 ± 0.21 | -2.63 ± 0.36 |
| CACUAGCAAUAUUACGAGAC | -3.77 ± 0.46 | – |
| CACUAGCAAUAUUACGAUAC | -3.41 ± 0.28 | -2.81 ± 0.38 |
| CACUAGCAAUAUUACGAUAU | -4.57 ± 0.34 | -2.17 ± 0.2 |
| CACUAGCAAUAUUACGAUGA | -1.85 ± 0.16 | -1.01 ± 0.14 |
